This note sets out measurements from publication PMC2212462 (The Journal of Experimental Medicine, 1998).

Data set [1] concerns the target CD3-ε (human (endogenous in HPB-ALL)) (UniProt P07766). As to the kind of experiment: co-IP.
Data set [2] deals with the molecule itself. As to the kind of experiment: non-reducing and reducing SDS-PAGE with Western blot.

Chain of CD3-ε (human (endogenous in HPB-ALL)) (P07766 23-207): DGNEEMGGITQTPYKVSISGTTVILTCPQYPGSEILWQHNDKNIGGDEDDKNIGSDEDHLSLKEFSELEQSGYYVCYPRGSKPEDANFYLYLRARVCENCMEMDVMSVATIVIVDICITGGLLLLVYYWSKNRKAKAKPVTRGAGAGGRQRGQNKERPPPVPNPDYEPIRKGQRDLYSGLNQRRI

In data set [1], “T cell receptor interacting molecule (TRIM) (from UniProt Q6PIZ9 1-186) (natural protein)” came in with a reduction of TRIM in the lysate after depletion of CD3 of 67%.

B1: T cell receptor interacting molecule (TRIM) (natural protein)
chain: MSGISGCPFFLWGLLALLGLALVISLIFNISHYVEKQRQDKMYSYSSDHTRVDEYYIEDTPIYGNLDDMISEPMDENCYEQMKARPEKSVNKMQEATPSAQATNETQMCYASLDHSVKGKRRKPRKQNTHFSDKDGDEQLHAIDASVSKTTLVDSFSPESQAVEENIHDDPIRLFGLIRAKREPIN
Usually stoichiometry N stands for a count of units in the complex or per binding partner. As to B1, in data set [2], the “stoichiometry N” value was found to be 2.
